Assay results from paper PMC4974071.
Changes are numbered by the printed parent chain.

Tests used:
[1] = target: T1, BCL11A-L (long isoform of BCL11A), wild-type, Q9H165-2; assay: BRET assay; details: chain shown with the change; HEK293 cells; donor Renilla luciferase fusion, acceptor YFP fusion; n = 3; parent: est. 0.30; read off a plot
T1 chain: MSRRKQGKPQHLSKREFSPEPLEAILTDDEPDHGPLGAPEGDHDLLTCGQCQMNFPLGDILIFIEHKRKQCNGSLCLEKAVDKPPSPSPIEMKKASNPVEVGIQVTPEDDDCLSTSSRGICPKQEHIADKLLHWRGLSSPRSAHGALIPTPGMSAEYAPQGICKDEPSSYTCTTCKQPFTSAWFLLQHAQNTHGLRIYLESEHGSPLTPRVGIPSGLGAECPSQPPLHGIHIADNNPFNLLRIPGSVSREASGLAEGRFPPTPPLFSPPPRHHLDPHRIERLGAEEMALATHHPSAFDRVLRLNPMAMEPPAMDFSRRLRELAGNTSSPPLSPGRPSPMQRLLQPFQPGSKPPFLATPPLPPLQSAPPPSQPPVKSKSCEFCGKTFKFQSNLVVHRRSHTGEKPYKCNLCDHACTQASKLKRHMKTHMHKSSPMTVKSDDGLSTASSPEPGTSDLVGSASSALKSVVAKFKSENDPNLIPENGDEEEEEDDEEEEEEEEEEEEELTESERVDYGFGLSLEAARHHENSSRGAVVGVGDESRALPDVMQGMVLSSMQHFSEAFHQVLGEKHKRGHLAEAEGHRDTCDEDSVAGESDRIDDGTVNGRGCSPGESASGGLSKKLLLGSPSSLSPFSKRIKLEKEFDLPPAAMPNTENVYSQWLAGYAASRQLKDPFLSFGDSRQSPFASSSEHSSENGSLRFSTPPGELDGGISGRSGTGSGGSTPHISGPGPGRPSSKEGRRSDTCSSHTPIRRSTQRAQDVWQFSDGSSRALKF

[2] = target: T2, BCL11A-S (short isoform of BCL11A), wild-type, Q9H165-3; assay: BRET assay; details: chain shown with the change; HEK293 cells; donor Renilla luciferase fusion, acceptor YFP fusion; n = 3; parent: est. 0.36; read off a plot
T2 chain: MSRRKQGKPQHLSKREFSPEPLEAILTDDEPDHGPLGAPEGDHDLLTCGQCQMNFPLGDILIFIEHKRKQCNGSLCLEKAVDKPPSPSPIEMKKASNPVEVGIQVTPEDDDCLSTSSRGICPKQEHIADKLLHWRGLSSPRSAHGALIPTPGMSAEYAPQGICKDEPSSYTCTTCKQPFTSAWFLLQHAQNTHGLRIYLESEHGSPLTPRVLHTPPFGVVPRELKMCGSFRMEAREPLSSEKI

B1: BCL11A-L (long isoform of BCL11A), wild-type, Q9H165-2 p.His66Gln (protein)
chain: T1 chain with H66Q
In the case of B1, the response [1] is reported as 0.11 and the response [2] is reported as 0.013.

B2: BCL11A-L (long isoform of BCL11A), wild-type, Q9H165-2 p.Thr47Pro (protein)
chain: T1 chain with T47P
In the case of B2, the response [1] is reported as 0.11 and the response [2] is reported as 0.001.

B3: BCL11A-L (long isoform of BCL11A), wild-type, Q9H165-2 p.Cys48Phe (protein)
chain: T1 chain with C48F
In the case of B3, the response [1] is reported as 0.065 and the response [2] is reported as 0.009.
